Numbering of substitutions follows the chain as printed.
What was measured:
AAV8 [1] = molecular target: T1, AAV8 (adeno-associated virus serotype 8 (AAV8)); test: 1 mL column of A4-008 coupled to agarose gel (9.77 mg/g gel); AAV capsid particles bound
T1 construct: also called adeno-associated virus serotype 8; AAV8 antigen

AAV6 [2] = molecular target: T2, AAV6 (adeno-associated virus serotype 6 (AAV6)); test: as above
T2 construct: also called adeno-associated virus serotype 6

AAV5 [3] = molecular target: T3, AAV5 (adeno-associated virus serotype 5 (AAV5)); test: as above
T3 construct: also called adeno-associated virus serotype 5; AAV5 antigen

AAV9 [4] = molecular target: T4, AAV9 (adeno-associated virus serotype 9 (AAV9)); test: as above
T4 construct: also called adeno-associated virus serotype 9; AAV9 antigen

AAV8 [5] = molecular target: T1, AAV8; test: 1 mL column of A4-008 coupled to agarose gel (10.74 mg/g gel); AAV capsid particles bound
AAV6 [6] = molecular target: T2, AAV6; test: as above
AAV5 [7] = molecular target: T3, AAV5; test: as above
AAV9 [8] = molecular target: T4, AAV9; test: as above
AAV8 [9] = molecular target: T1, AAV8; test: 1 mL column of A4-024 coupled to agarose gel (6.36 mg/g gel); AAV capsid particles bound
AAV2 = molecular target: T5, AAV2 (adeno-associated virus serotype 2 (AAV2), UniProt P03135 1-735); test: as above
T5 construct: also called adeno-associated virus serotype 2; AAV2 antigen

AAV6 [10] = molecular target: T2, AAV6; test: as above
AAV5 [11] = molecular target: T3, AAV5; test: as above
AAV9 [12] = molecular target: T4, AAV9; test: as above
AAV8 [13] = molecular target: T1, AAV8; test: 1 mL column of A4-014 coupled to agarose gel (3.12 mg/g gel); AAV capsid particles bound
AAV6 [14] = molecular target: T2, AAV6; test: as above
AAV5 [15] = molecular target: T3, AAV5; test: as above
AAV9 [16] = molecular target: T4, AAV9; test: as above

B1: A4-008 (VHH)
VHH: VQLQESGGGLVQAGGSLRLSCAASGRAFSINTMGWYRQAPPKQRELVATVTRGGSTNYAGSVKGRFTISRDNAKNTIYLQMNSLRPEDTAVYYCHVDEVRQSSWTTSNIWGQGTQVTVSS
- binding capacity (AAV8 [1]): 9.47e+13 VP
- binding capacity (AAV6 [2]): 8.78e+13 VP
- binding capacity (AAV5 [3]): 8.56e+13 VP
- binding capacity (AAV9 [4]): 8.83e+13 VP
- binding capacity (AAV8 [5]): 1.16e+14 VP
- binding capacity (AAV6 [6]): 9.43e+13 VP
- binding capacity (AAV5 [7]): 8.95e+13 VP
- binding capacity (AAV9 [8]): 9.17e+13 VP

B2: A4-024 (VHH)
VHH: B1 VHH with A13P, R26S, A27N, S29R, P41G, G60D, A73P, I77V, Q101E, I109L
- binding capacity (AAV8 [9]): 5.17e+13 VP
- binding capacity (AAV2): 7.65e+13 VP
- binding capacity (AAV6 [10]): 6.09e+13 VP
- binding capacity (AAV5 [11]): 4.8e+13 VP
- binding capacity (AAV9 [12]): 6.5e+13 VP

B3: A4-014 (VHH)
VHH: B1 VHH with A13P, R26S, A27R, T32S, P41G, S55N, I77V, Q101E, I109L
- binding capacity (AAV8 [13]): 3.83e+13 VP
- binding capacity (AAV6 [14]): 2.59e+13 VP
- binding capacity (AAV5 [15]): 3.22e+13 VP
- binding capacity (AAV9 [16]): 4.3e+13 VP

Source: patent US20260193326A1 (published 2026)
